Columns and labels:
[1] = biological target: Tat (21-40) peptide (cysteine-rich region-transactivation domain) (HIV-1); test: ELISA; plate coated with Tat peptide, antibody used for detection
[2] = biological target: Tat (65-80) peptide (RGD sequence) (HIV-1); test: as above
[3] = biological target: Tat (1-20) peptide (N-terminal domain) (HIV-1); test: as above
[4] = biological target: Tat (83-102) peptide (C-terminal domain) (HIV-1); test: as above
[5] = biological target: Tat (56-70) peptide (glutamine-rich region) (HIV-1); test: as above
[6] = biological target: Tat (21-58) peptide (cysteine, core, and basic regions) (HIV-1); test: as above
[7] = biological target: Tat (46-60) peptide (basic region-nuclear localisation signal) (HIV-1); test: as above
[8] = biological target: Tat (73-86) peptide (HIV-1); test: as above
[9] = biological target: Tat (36-50) peptide (core region) (HIV-1); test: as above
[10] = biological target: oxidised Tat (HIV-1) (UniProt Q73370); test: ELISA; wells coated with oxidised Tat, antibody used for detection
[11] = biological target: HIV-1 Tat protein (recombinant, native, biologically active) (HIV-1) (UniProt Q73370); test: ELISA; wells coated with native Tat, antibody used for detection
[12] = biological target: HIV-1 Tat protein (recombinant, native, biologically active) (HIV-1) (UniProt Q73370); test: ELISA; plate coated with Tat, antibody used for detection
[13] = biological target: Tat-cys22 (transactivation mutant, cysteine 22 substituted by glycine) (HIV-1); test: ELISA; wells coated with Tat-cys22, antibody used for detection
[14] = biological target: bovine serum albumin (bovine) (UniProt P02769); test: ELISA; uncoated (BSA-blocked) well incubated with Tat, detected with anti-Tat
bovine serum albumin (bovine), sequence (P02769 25-607 limits assumed): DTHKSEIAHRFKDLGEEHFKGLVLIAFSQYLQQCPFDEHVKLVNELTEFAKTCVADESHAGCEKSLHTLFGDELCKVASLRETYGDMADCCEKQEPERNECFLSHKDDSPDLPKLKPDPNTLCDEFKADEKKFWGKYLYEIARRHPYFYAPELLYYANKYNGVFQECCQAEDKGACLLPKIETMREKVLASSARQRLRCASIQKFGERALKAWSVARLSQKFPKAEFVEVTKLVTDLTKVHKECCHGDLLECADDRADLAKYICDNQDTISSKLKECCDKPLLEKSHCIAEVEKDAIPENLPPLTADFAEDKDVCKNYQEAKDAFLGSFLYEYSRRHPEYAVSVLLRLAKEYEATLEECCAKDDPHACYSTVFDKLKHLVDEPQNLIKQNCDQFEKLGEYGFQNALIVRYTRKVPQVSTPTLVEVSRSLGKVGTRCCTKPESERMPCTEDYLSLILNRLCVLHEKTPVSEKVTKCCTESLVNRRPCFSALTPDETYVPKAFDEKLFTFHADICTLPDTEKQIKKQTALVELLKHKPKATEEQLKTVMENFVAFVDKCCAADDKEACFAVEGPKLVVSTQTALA

Substance	ELISA signal [1]	ELISA signal [2]	ELISA signal [3]	ELISA signal [4]	ELISA signal [5]	ELISA signal [6]	ELISA signal [7]	ELISA signal [8]	ELISA signal [9]	ELISA signal [10]	ELISA signal [11]	ELISA signal [12]	ELISA signal [13]	ELISA OD [14] [OD]
CTR isot. (isotype control antibody)	0.082	0	0.006	0	0	0.108	0.063	0.019	0	0.016	0.051	0.081	0.026	
HIV-1 Tat protein (recombinant, native, biologically active) (from UniProt Q73370 1-100)														0.431
monoclonal anti-CCR5 antibody (Pharmingen), directed against the CCR5 second extracellular loop	0	0	0	0	0.147	3	0.466	0	0	0.128	1.24	1.45	0.75	
